Target: APC-TMR (Mus musculus) (UniProt Q61315)
Experiment: TIRF microscopy in vitro motility assay

stoichiometry N: 2
Substance: APC-TMR, Q61315 1-2845
